One block for each molecule: values may come before it.
Assays:
Format in all cases: cell-based
CD40 mutants = target: T1, CD40 mutants (Homo sapiens, UniProt P25942, E235A); test: Recruitment assay in intact cells with CD40 mutants (deletions or point mutations in TRAF binding sites); settings: E235A, relative to wild type CD40
T1 construct: expressed in transfected cells; host or cells: 293T
Experimental: The lysates were cleared by centrifugation at 15000 G at 4° C. in a micro-centrifuge, 3 fold serially diluted (with lysis buffer containing 1% bovine serum albumin) and then every diluted sample incubated for 2 hours at room temperature (or overnight) in wells of ELISA microtiter plates coated with a mAb (Ro1) specific to the CD40 extra-cellular domain (Schwabe et al. 1997). For control purposes, instead of the wild type CD40 plasmid, a plasmid encoding a CD40 mutant lacking the entire signaling domain was used for transfection and transient expression (CD401-222, FIG. 1B). Following incubation exhaustive washes were carried out on the microtiter plates to remove any unbound protein [about 10 washing steps with PBS containing 0.05% Tween 20) PBS/Tween)]. To detect bound TRAF1, anti TRAF1 specific antibodies were loaded into the plates, incubated for about 3 hours at room temperature, […] by extensive washes to remove unbound antibody and detecting the bound antibody with an HRP conjugated secondary antibody. All antibodies (except when used as solid phase antibody) were diluted in PBS/Tween containing 1% BSA.
(§1) The recruitment of TRAF to CD40 can be quantitatively measured using the assay described in example 1. For that purpose, the assay conditions were adjusted in such a way that TRAF expression was in significant excess over the expression of CD40. This was the case when the TRAF expression plasmid was used at a two to three fold excess over the CD40 expression plasmid. The CD40 bound TRAF concentration was measured as described in example 1. A reference extract containing CD40/TRAF complexes served as a standard in each assay. This standard extract consisted of a large pool extract from cells that had been co-transfected with the plasmids encoding CD40/TRAF1, CD40/TRAF2, CD40/TRAF3, CD40/TRAF5 and CD40/TRAF6. The extracts were tested for the presence of CD40/TRAF complexes and the complex concentrations in each extract were arbitrarily defined as 1000 U/ml. The extracts were frozen in small aliquots and kept at −80° C. until further use. By comparing unknown samples to these extracts, it was possible to determine the relative CD40-TRAF complex concentrations in arbitrary units. The necessary normalization for sample-to-sample variations in the CD40 expression was calculated with the following formula: […]
The quantitative version of the TRAF recruitment assay as described in example 3 was used to compare CD40 and various CD40 mutants with respect to their TRAF recruitment behaviour. TRAF 1, 2, 3, 5 and 6 were examined. […] Additional deletion of the TRAF1/2/3/5 binding motif PXQXT254 at amino acid position 250 to 254 reduced the binding of all 5 TRAFs test to background levels (1-254EA in FIG. 3B). […]

BCMA = target: T2, BCMA (Homo sapiens, UniProt P25942+Q02223); test: Recruitment assay with hybrid receptor (CD40 extracellular domain, BCMA transmembrane and intracellular domain); settings: 293T cells
T2 construct: transmembrane and intracellular domain of anyone of the following receptors: BCMA; expressed in transfected cells; host or cells: 293T
T2 sequence (P25942+Q02223 fused, species assumed): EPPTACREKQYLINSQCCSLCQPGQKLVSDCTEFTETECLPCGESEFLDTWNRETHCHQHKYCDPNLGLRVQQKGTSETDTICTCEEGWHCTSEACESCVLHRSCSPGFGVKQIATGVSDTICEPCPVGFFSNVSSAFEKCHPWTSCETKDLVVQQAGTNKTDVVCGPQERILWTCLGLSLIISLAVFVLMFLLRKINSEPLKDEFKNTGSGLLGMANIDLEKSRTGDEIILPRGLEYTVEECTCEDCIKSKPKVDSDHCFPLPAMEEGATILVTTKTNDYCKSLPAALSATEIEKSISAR
Experimental: as §1

TACI = target: T3, TACI (Homo sapiens, UniProt O14836+P25942); test: Recruitment assay with hybrid receptor (CD40 extracellular domain, TACI transmembrane and intracellular domain); settings: 293T cells
T3 construct: cDNA fragments encoding for the transmembrane and cytoplasmic domains of the LTβR, TACI, the p75TNF receptor, CD27; expressed in transfected cells; host or cells: 293T
T3 sequence (P25942+O14836 fused, species assumed): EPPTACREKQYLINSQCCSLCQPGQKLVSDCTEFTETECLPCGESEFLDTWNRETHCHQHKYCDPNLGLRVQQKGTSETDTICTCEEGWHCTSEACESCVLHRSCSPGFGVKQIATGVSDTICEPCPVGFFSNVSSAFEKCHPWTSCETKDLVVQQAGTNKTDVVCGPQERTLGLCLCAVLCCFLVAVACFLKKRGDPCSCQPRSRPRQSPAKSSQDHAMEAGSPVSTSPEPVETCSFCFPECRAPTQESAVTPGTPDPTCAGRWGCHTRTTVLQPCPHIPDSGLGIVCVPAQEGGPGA
Experimental: as §1

LTβR = target: T4, LTβR (Homo sapiens, UniProt P25942+P36941); test: Recruitment assay with hybrid receptor (CD40 extracellular domain, LTβR transmembrane and intracellular domain); settings: 293T cells
T4 construct: cDNA fragments encoding for the transmembrane and cytoplasmic domains of the LTβR, TACI, the p75TNF receptor, CD27; expressed in transfected cells; host or cells: 293T
T4 sequence (P25942+P36941 fused): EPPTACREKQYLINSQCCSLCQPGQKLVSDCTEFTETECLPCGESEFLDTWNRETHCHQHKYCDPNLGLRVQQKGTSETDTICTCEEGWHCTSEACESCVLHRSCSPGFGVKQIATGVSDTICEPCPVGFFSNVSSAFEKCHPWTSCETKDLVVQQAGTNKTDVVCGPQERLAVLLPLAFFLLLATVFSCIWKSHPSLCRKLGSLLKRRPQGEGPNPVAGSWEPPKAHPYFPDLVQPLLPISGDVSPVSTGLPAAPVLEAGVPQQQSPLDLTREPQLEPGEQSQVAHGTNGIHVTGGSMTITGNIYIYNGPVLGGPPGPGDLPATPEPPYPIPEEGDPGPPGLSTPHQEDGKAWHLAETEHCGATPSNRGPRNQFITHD
Experimental: as §1
Recruitment of various TRAFs to receptors different to CD40, was tested by the recruitment assay described in example 1 by transforming cells with expression plasmids encoding hybrids receptors comprising the extracellular domain of CD40 and transmembrane and intracellular domain of anyone of the following receptors: BCMA (Madry et al. 1998 and Hatzoglou et al. 2000) the LTβR-receptor (Mosialos et al. 1995, Crowe et al. 1994, Nakano et al. 1996), TACI (von Bulow et al. 1997, Xia et al. 2000) the p75TNFR (Rothe et al. 1994) and the CD27 (Gravestein et al. 1998, Akiba et al. 1998) (for details of constructs see example 7). Measurement of TRAF recruitment to the signalling domains of BCMA the LTβR-receptor TACI the p75TNFR or the CD27 was carried out by co-transfecting 293T cells with a plasmid encoding anyone of the above hybrid receptors together with a plasmid encoding TRAF and measurement of the TRAF/Receptor complex using the ELISA sandwich described in example 1 and the quantitation as described in example 3. The assay with the hybrid receptors is schematically represented in FIG. 4A. The results shown in FIG. 4B indicate that, using the assay monitoring recruitment in intact cells, any TRAF recruiting receptor of the TNF/NGF family can be examined with the same antibody sandwich assay described in example 1 and the amount of TRAF-receptor/CD40 hybrid complex can be monitored as described in example 3. […] Recruitment of TRAF3 to all the receptors tested is similar. […]

CD27 = target: T5, CD27 (Homo sapiens, UniProt P25942+P26842); test: Recruitment assay with hybrid receptor (CD40 extracellular domain, CD27 transmembrane and intracellular domain); settings: 293T cells
T5 construct: cDNA fragments encoding for the transmembrane and cytoplasmic domains of the LTβR, TACI, the p75TNF receptor, CD27; expressed in transfected cells; host or cells: 293T
T5 sequence (P25942+P26842 fused, species assumed): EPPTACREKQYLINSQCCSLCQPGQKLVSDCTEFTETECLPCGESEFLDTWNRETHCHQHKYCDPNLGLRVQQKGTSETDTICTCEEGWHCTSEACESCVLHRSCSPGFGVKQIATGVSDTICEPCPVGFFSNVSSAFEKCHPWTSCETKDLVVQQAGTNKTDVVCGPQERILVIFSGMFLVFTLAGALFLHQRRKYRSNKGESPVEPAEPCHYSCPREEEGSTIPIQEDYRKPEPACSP
Experimental: as §1

p75TNFR = target: T6, p75TNFR (Homo sapiens, UniProt P20333+P25942); test: Recruitment assay with hybrid receptor (CD40 extracellular domain, p75TNFR transmembrane and intracellular domain); settings: 293T cells
T6 construct: cDNA fragments encoding for the transmembrane and cytoplasmic domains of the LTβR, TACI, the p75TNF receptor, CD27; expressed in transfected cells; host or cells: 293T
T6 sequence (P25942+P20333 fused): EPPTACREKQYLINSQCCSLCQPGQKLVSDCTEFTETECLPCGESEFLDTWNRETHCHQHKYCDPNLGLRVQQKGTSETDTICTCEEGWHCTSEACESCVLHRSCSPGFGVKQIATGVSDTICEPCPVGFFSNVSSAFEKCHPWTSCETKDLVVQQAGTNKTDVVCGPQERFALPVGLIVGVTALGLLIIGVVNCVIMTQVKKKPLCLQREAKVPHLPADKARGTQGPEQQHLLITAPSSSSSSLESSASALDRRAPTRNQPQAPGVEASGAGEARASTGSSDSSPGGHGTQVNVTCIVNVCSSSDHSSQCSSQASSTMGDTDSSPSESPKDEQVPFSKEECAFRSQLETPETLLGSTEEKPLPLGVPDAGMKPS
Experimental: as §1, with “By comparing unknown samples to these extracts, it was possible to determine the relative CD40-TRAF complex concentrations in arbitrary units.” left out
Recruitment of various TRAFs to receptors different to CD40, was tested by the recruitment assay described in example 1 by transforming cells with expression plasmids encoding hybrids receptors comprising the extracellular domain of CD40 and transmembrane and intracellular domain of anyone of the following receptors: BCMA (Madry et al. 1998 and Hatzoglou et al. 2000) the LTβR-receptor (Mosialos et al. 1995, Crowe et al. 1994, Nakano et al. 1996), TACI (von Bulow et al. 1997, Xia et al. 2000) the p75TNFR (Rothe et al. 1994) and the CD27 (Gravestein et al. 1998, Akiba et al. 1998) (for details of constructs see example 7). Measurement of TRAF recruitment to the signalling domains of BCMA the LTβR-receptor TACI the p75TNFR or the CD27 was carried out by co-transfecting 293T cells with a plasmid encoding anyone of the above hybrid receptors together with a plasmid encoding TRAF and measurement of the TRAF/Receptor complex using the ELISA sandwich described in example 1 and the quantitation as described in example 3. […]

CD40 = target: T7, CD40 (Homo sapiens, UniProt P25942); test: Recruitment of NIK to CD40 via TRAF2 in 293T cells, anti-CD40 capture ELISA with anti NIK detection
T7 construct: expressed in transfected cells; host or cells: HEK 293T
T7 sequence (P25942 21-277): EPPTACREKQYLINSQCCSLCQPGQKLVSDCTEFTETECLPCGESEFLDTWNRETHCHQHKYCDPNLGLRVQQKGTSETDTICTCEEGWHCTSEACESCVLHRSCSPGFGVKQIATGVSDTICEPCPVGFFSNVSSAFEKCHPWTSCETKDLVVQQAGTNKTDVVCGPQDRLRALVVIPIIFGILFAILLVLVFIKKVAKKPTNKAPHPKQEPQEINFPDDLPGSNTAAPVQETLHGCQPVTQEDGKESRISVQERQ
Source text: The assay described in example 1 can be used to measure recruitment of signal proteins, e.g. NIK (a downstream mediator in the NF-κB pathway Malinin et al. 1997) to a cytokine receptor, e.g. CD40 via an adaptor protein e.g. TRAF2. Expression plasmids encoding CD40, TRAF2, NIK (in pcDNA3.1) and myc-tagged IKKα were co-transfected into 293T (at a ratio of 1:1.75:1.75:1.75 respectively). Empty vector was used to equalize the amount of transfected DNA. The transfection was done as described for example 1. Twenty seven hours later the cells were extracted as described in example 1. The lysates were incubated with ELISA plates coated with an anti CD40 mAb (R01, Schwabe et al. 1997). After two hours the plates were washed with PBS/tween and developed with a commercially available rabbit anti NIK antibody (Santa Cruz at 1:100 dilution, SC-6363) and HRP-labeled goat anti rabbit Ig antibody (Pharmingen). The recruitment assay for NIK is schematically represented in FIG. 5A.

T1 sequence (P25942 21-277 E235A): as the sequence (P25942 21-277) above, with E215A counted along it

recruitment to CD40 mutant E235A (CD40 mutants): reduced recruitment
recruitment to BCMA compared with the other receptors tested (BCMA): similar
recruitment to TACI compared with the other receptors tested (TACI): similar
recruitment to LTβR compared with the other receptors tested (LTβR): similar
recruitment to CD27 compared with the other receptors tested (CD27): similar
recruitment to p75TNFR compared with the other receptors tested (p75TNFR): similar
B1: TRAF3: TNF receptor associated factor 3, adaptor protein expressed from pcDNA3 (protein, UniProt Q13114 1-568, looked up)
chain: MESSKKMDSPGALQTNPPLKLHTDRSAGTPVFVPEQGGYKEKFVKTVEDKYKCEKCHLVLCSPKQTECGHRFCESCMAALLSSSSPKCTACQESIVKDKVFKDNCCKREILALQIYCRNESRGCAEQLMLGHLLVHLKNDCHFEELPCVRPDCKEKVLRKDLRDHVEKACKYREATCSHCKSQVPMIALQKHEDTDCPCVVVSCPHKCSVQTLLRSELSAHLSECVNAPSTCSFKRYGCVFQGTNQQIKAHEASSAVQHVNLLKEWSNSLEKKVSLLQNESVEKNKSIQSLHNQICSFEIEIERQKEMLRNNESKILHLQRVIDSQAEKLKELDKEIRPFRQNWEEADSMKSSVESLQNRVTELESVDKSAGQVARNTGLLESQLSRHDQMLSVHDIRLADMDLRFQVLETASYNGVLIWKIRDYKRRKQEAVMGKTLSLYSQPFYTGYFGYKMCARVYLNGDGMGKGTHLSLFFVIMRGEYDALLPWPFKQKVTLMLMDQGSSRRHLGDAFKPDPNSSSFKKPTGEMNIASGCPVFVAQTVLENGTYIKDDTIFIKVIVDTSDLPDP
modifications: full-length
notes: TNF receptor associated factor 3, adaptor protein expressed from pcDNA3

recruitment to CD40 mutant E235A (CD40 mutants): reduced recruitment
recruitment to LTβR, folds higher than recruitment to CD40 (LTβR; CD40 as relative standard): about 152 fold
B2: TRAF5: TRAF5 adaptor protein, expressed as tagged deletion mutant, amino acids 145 to 557 (protein, UniProt O00463 145-557, looked up, fragment)
chain: REPVLRKDLKEHLSASCQFRKEKCLYCKKDVVVINLQNHEENLCPEYPVFCPNNCAKIILKTEVDEHLAVCPEAEQDCPFKHYGCAVTDKRRNLQQHEHSALREHMRLVLEKNVQLEEQISDLHKSLEQKESKIQQLAETIKKLEKEFKQFAQLFGKNGSFLPNIQVFASHIDKSAWLEAQVHQLLQMVNQQQNKFDLRPLMEAVDTVKQKITLLENNDQRLAVLEEETNKHDTHINIHKAQLSKNEERFKLLEGTCYNGKLIWKVTDYKMKKREAVDGHTVSIFSQSFYTSRCGYRLCARAYLNGDGSGRGSHLSLYFVVMRGEFDSLLQWPFRQRVTLMLLDQSGKKNIMETFKPDPNSSSFKRPDGEMNIASGCPRFVAHSVLENAKNAYIKDDTLFLKVAVDLTDLEDL
modifications: His tag

recruitment of NIK to CD40 when IKK was co-expressed (CD40; myc-tagged IKKα co-transfected): clearly improved
recruitment of NIK to CD40, dependence on adaptor (CD40; with or without TRAF2 co-transfection): TRAF2 dependent
B3: NIK: kinase, a downstream mediator in the NF-κB pathway, recruited to CD40 via TRAF2 (protein, UniProt Q99558 1-947, looked up)
Mitogen-activated protein …: MAVMEMACPGAPGSAVGQQKELPKAKEKTPPLGKKQSSVYKLEAVEKSPVFCGKWEILNDVITKGTAKEGSEAGPAAISIIAQAECENSQEFSPTFSERIFIAGSKQYSQSESLDQIPNNVAHATEGKMARVCWKGKRRSKARKKRKKKSSKSLAHAGVALAKPLPRTPEQESCTIPVQEDESPLGAPYVRNTPQFTKPLKEPGLGQLCFKQLGEGLRPALPRSELHKLISPLQCLNHVWKLHHPQDGGPLPLPTHPFPYSRLPHPFPFHPLQPWKPHPLESFLGKLACVDSQKPLPDPHLSKLACVDSPKPLPGPHLEPSCLSRGAHEKFSVEEYLVHALQGSVSSGQAHSLTSLAKTWAARGSRSREPSPKTEDNEGVLLTEKLKPVDYEYREEVHWATHQLRLGRGSFGEVHRMEDKQTGFQCAVKKVRLEVFRAEELMACAGLTSPRIVPLYGAVREGPWVNIFMELLEGGSLGQLVKEQGCLPEDRALYYLGQALEGLEYLHSRRILHGDVKADNVLLSSDGSHAALCDFGHAVCLQPDGLGKSLLTGDYIPGTETHMAPEVVLGRSCDAKVDVWSSCCMMLHMLNGCHPWTQFFRGPLCLKIASEPPPVREIPPSCAPLTAQAIQEGLRKEPIHRVSAAELGGKVNRALQQVGGLKSPWRGEYKEPRHPPPNQANYHQTLHAQPRELSPRAPGPRPAEETTGRAPKLQPPLPPEPPEPNKSPPLTLSKEESGMWEPLPLSSLEPAPARNPSSPERKATVPEQELQQLEIELFLNSLSQPFSLEEQEQILSCLSIDSLSLSDDSEKNPSKASQSSRDTLSSGVHSWSSQAEARSSSWNMVLARGRPTDTPSYFNGVKVQIQSLNGEHLHIREFHRVKVGDIATGISSQIPAAAFSLVTKDGQPVRYDMEVPDSGIDLQCTLAPDGSFAWSWRVKHGQLENRP

— patent US7642046B2, “Method for monitoring recruitment of proteins to the intracellular domain of a receptor in intact cells” (priority 2001, dated 2010)
